B1: Arabidopsis PUX3 (natural protein, Arabidopsis thaliana, UniProt Q9SUG6 1-302, looked up)
chain: MSSKDKKLSKPTSGRTGGIRTLSDLNRRSEPDSDSDSDGPQEYFTGGEKSGMLVQDPTKEPKHDDVDEIFNQARQLGAVEGPLEHPSSSRSFTGTGRLLSGESVPTALQQPEPVIHNIIFWSNGFTVDDGPLRKLDDPENASFLDSIRKSECPKELEPVDKRAPVHVNLMRRDEKCPEKEKLKVSFQGVGRTLGGASSSTASSQSNLTDVAAVQSPLQSLVVDETLPSTSIQLRLADGTRMVAKFNNHHTVNDIRGFIEFSRPGNPNNYTLQVMGFPPKPLTDPSQTIEQAGLASSVVIQKF
B2: Arabidopsis PUX4 (natural protein, Arabidopsis thaliana, UniProt Q8RWU7 1-303, looked up)
chain: MSSKDKKPSKPSSSRGGIRTLSDLNRRSGPDSDSDSDGPQEYYTGGEKSGMLVQDPSKKDDVDEIFNQARQLGAVEGPLEPPPSSRSFTGTGRLLSGENVPTGNQQPEPVVHNIVFWSNGFTIDDGPLRKLDDPENASFLESIRKSECPKELEPADRRAPVHVNLMRKEEKCPERQKRRVSFQGVGRTLGGSNEGSGSSSPVAPDSAPIPIQTEPAPSQSLVIDETVPTTSIQLRLADGTRLVAKFNHHHTVNDIRGFIDSSRPGASLNYQLQTMGFPPKPLTDLTQTIEEAGLANSVVLQKF
B3: P-NAD5_(SHP-UBX) (P-NAD5 with helix1 and the SEP domain deleted) (other)
chain: QVQLVESGGALVQPGGSLRLSCAASGFPVNRYSMRWYRQAPGKEREWVAGMSSAGDRSSYEDSVKGRFTISRDDARNTVYLQMNSLKPEDTAVYYCNVNVGFEYWGQGTQVTVSSEPPKPKNPFQGVGRTLGASGSGSSSAPQASSAPMNVAPAPSRGLVVDPAAPTTSIQLRLADGTRLVSRFNNHHTVRDVRGFIDASRPGGSKEYQLLTMGFPPKQLTELDQTIEQAGIANAVVIQKF

target: CDC48A-ND1 (a CDC48A construct containing the N and first ATPase domains) (Arabidopsis thaliana, UniProt P54609 1-484); experiment: ITC
Sequence (P54609 1-484): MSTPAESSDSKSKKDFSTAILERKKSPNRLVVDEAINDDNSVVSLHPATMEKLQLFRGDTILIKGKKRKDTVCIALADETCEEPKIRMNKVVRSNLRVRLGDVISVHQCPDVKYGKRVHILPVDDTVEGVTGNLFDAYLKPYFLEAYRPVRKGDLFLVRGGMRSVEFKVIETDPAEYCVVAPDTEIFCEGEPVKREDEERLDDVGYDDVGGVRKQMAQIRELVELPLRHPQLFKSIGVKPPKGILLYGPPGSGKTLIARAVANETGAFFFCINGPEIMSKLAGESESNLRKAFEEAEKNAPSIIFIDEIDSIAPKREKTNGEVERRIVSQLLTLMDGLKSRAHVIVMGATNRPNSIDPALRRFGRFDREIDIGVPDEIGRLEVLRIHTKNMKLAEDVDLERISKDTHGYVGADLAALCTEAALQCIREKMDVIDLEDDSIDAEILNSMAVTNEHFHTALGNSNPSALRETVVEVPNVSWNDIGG

Kd | stoichiometry N | Binder
5.6 ± 1.6 µM | ~0.5 | B1
2.7 ± 0.9 µM | ~0.5 | B2
12.3 ± 3.7 µM | 1 | B3

Reference: PMC11315185 (Heliyon, 2024)
